From the nanobody polyreactivity screen of Harvey et al. (2022)

Assay: yeast display, Sf9 membrane polyspecificity reagent, FACS + sequencing; frameworks hold sequencing errors
Method in brief: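 A synthetic nanobody library was expressed on Saccharomyces cerevisiae BJ5465 by galactose induction for 36–48 hours. The library was stained for 1 hour at 4 °C with 10% biotinylated, detergent-solubilized Sf9 membrane reagent and enriched with streptavidin microbeads before FACS. Low and high (top ~1%) gates were set on anti-HA fluorescence for expression and streptavidin fluorescence for reagent binding, and each polyreactivity label reflects the gate of origin.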

Sequence	polyreactivity (PSR sort gate)
QVQLVESGGGLVQAGGSLRLSCAASGRTFLYNAMGWYREAPGTERELVAAISTNGSSTYYADSVKGRFTISRDNAKNTVYLQMNSLKPEDTAVYYCAAQPPLDYEFPYRYGYWGQGTQVTVSS	low polyreactivity
QVQLVESGGGLVQAGGSLRLSCAASGFIFGNYVLGWSRQAPGKERELVAAISESGSRTYYADSVKGRFTISRDYAKKTVYLQMNSLKPEDTAVYYCAAALFSYYGEYDYWGQGTQVTVSS	low polyreactivity
QVQLVESGGGLVQAGGSLRLSCAASGFTFPFYTMGWYRQAPGKERELVAAISRSGASTFYADSVKGRFTISRDNAKNTGYLQMNSLKPEDTAVYYCAGRRGYAPYEYWGQGTQVTVSS	high polyreactivity
QVQLVESGGGLVQAGGSLRLSCAASGFIFFRYAMGWYRQAPGKERELVAAISTRTGITYYADSVKGRFTISRDNAKNTVYLQMNSLKPEDTAVYYCNVLRSHSLYPFWKYDYWGQGTQVTVSS	high polyreactivity
QLQLVESGGGLVQAGGSLRLSCAASGRTFVSIALGWYRQAPGKERELFAGINWTDDSTYYADSVKGRFTISRDNAKHSVYLQMNCLKPEDTAVYYCAADQQDGLWDYQDWYDYWGPGTQVTVSS	low polyreactivity
QVQLVESGGGLVQAGGSLRLSCAASGYIFLANAMGWYRQAPGKERELVAAITSGGGGTYYADSVKGRFTISRDNAKNTVYLQMNSLKPEDTAVYYCAADHGRDGSSFEYWGQGTQVTVSS	low polyreactivity
QVQLVESGGGLVQAGGSLRLSCAASGSIFQQYAMGWYRQAPGKERELVAAITYSGDGTYYADSVKGRFTISRDNAKNTVYLQMNSLKPEDTAVYYCAAYPRDPYKEYDYWGQGNQVTVSS	low polyreactivity
QVQLVESGGGLVQAGGSLRLSCAASGFIFASNAMGWYRQAPGKERELVASISRSGGNTYYADSVKGRFTISRDNAKNTVYLQMNSLKPEDTAVYYCAAEYIFHYYDIFDYWGQGTQVTVSS	high polyreactivity
QVQLVESGGGLVQAGGSLRLSCAASGSTFVGYAMGWYRPAPGKDRELFAAITRGGGSTYYADSVKWRFTISRDNAKNTVYLQINSLKPEDTAVYYCAAYQHPGLRTSYEYWGQGTQVTVSS	low polyreactivity
QVQLVESGRGLVQAGGSLRLSCAASGSIFTHYAMVWYRQAPGKERELVATISNGDGSTYYADSVKGRFTISRDNAKNTVYLQMNSLKPEDTAVYYCNVDDFSQYADDSWGYEYWGQGTQVTVSS	low polyreactivity
QVQLVESGGGLVQAGGSLRLSCAASGRIFNLYAMGWYRQAPGKERELVAGISWSGGDTTYADSVKGRFTISRDNAKNTVYLQMNSLKPEDTAVYYCNKRAYLDYGGRGYNYWGQGTRVTVSS	low polyreactivity
QVQLVESGGGLVQAGGSLRLSCAASGGIFTGNAMGWYRQAPGKERELVAAINRRTGSTYYADSVKGRFTISRDNAKNTVYLQMNSLKPEDTAVYYCATRRYRSYTYDYWGQGTQVTVSS	high polyreactivity
QVQLVESGGGLVQAGGSLRLSCAASGSTFYVNAMGWYRPAPGKERELVAAITKSGGNTYYADSVKGRFTISRDNAKNTVYLQMNSLKPEDTAVYYCAAYKRYSSLTGYESWGQGTQVTVSS	high polyreactivity
QVQLVESGGGIVQAGGSLRLSCAASGRIFSVNAMGWYRQAPGKERELVAAITGSGTITYYADSVKGRFTISRDNAKNSVYLQMNSLKPEDTAVYYCAARPVLRYYAGYYYWGQGTQVTVSS	high polyreactivity
QVQLVESGGGLVQAGGSLRLSCAASGFIFDYYAMGWYRQAPGKEWELVAGITRDGSTNYADSVKGRFTISRDNAKNTVYLQMNSLKPEDTAVYYCAAGPPRTRYRNARFDYWGQGTQVTVSS	high polyreactivity
QVQLVESGGGLVQAGASLRLSCAASGLNFKRNAMGWYRQAPGKERELVAAIRYSTDSTNYADSVKGRFTISRDNAKNTVFLQMNSLKPEDTAVYYCAKDKQDYEYWGQGTLVTVSS	low polyreactivity

Sequence	polyreactivity (PSR sort gate)
QVQHVESGGGLVQAGGSLRLSCAASGLTFYRYAMGWNRQAPGKERELVAAITSGGSTYYADSVKGRFTISRDNAKNTVYLQMNSLKPEDTAVYYCARQYGYQPERYGYWGQGTQVTVSS	low polyreactivity
QVQLVESGGGLVQAGGRLRLSCAASGSTFGLNAMGWYRQAPGTERELVAAITSRGTRTYYADSVKGRFTISRDNAKNTVYLQMNSLKTEDTAGYKCAKDSGATRYGEYDYWGQGTQVTVSS	low polyreactivity
QVQLVESGGGLVQAGGSLRLSCAASGIILNYNAMGWYRQAPGKERELVAVIRTRGGSTYYADSVKGRFTISRDNAKNTVYLQMNSLKPEDTAVYYCAAKQIPWHRGGFGYDYWGQGSQVTVSS	low polyreactivity
QVQLVESGGGLVQAGGSLRLSCAASGRNFRDYDMGWYRQAPGKERELGAAITYDGYSTYYADSVKGRFTISRDNAKNTVYLQMNSLKPEDTAVYYCNADDDVTYFTYYSGGLYYWGQGTQVTVSS	low polyreactivity
QVQLEESGGGLVQAGGSLLLICADSGSILGGNAMGWYRHAPGKERQMVDAITFSGGGTYYADSVKGRFTLSRDNAKNTVYLQMNSLKPEDTAVYYCAADKDGYTYEFDYWGQGTQVTVSS	low polyreactivity
QVQLVESGGGLVQAGGSLRLSCAASGFTFYLNAMGWYRQAPGKERELVAAISYSDGSPYYADSVKGRFTISRDNAKNTVYLQRNSLKPEDTAVYYCAADTTDPGGAYQLMDYWRQGTQVTVSS	low polyreactivity
QVQLVESGGGLVQAGGSLRLSCAASGLNFYRYPMGWNRQAPGKERELVAAITRNGGSTYYADSVKGRFTISRDNANNTVYLQMNSLKPEDIAVYYCAADLYSAVYFSRWSDYWGQGTQVTVSS	high polyreactivity
QDQLVESGGGLVQAGGSLRLSCAASGSTLRYYAMGWYRQAPGKERELVAAITYSAGRTSYADSVKGRFTISRDNAKNTVYLQMNSLKPEDTAVYYCATQWHSYLRRYDYWGQGTQVTVSS	low polyreactivity
QVQLVESGGGLVQAGGSLRLSCAACGRTFYFYTMGWYRQAPGKERELVAAITRSGVSTYYADSVKGRFTISRDNAKNTVYLQMNSLKPEDTAVYYCAVRTWGYTQYYYWGQGTQVTVSS	high polyreactivity
QVQLVESGGRLVQAGGSLRLSCAASGRIFTWYAMGWYRQAPGKERELVAAISWTGGTTYYADSVKGRFTISRVNAKNTVYLQMNSMKPEDTEVYYCNKVVGFRSNFGGYGYCGQGTQVTVSS	high polyreactivity
QVQLVESGGGLVQAGGSLRLSCAASGRTLFHYAMGWYRQAPGKERELVAAIRNSDGSTYYADSVKGRFTISRDNAKNTVYLQMNSLKPEDTAVYYCAAVRRYHSYPDGGYWGQGTQVTVSS	high polyreactivity
QVQLVESGGGLVQAGGSLRLSCASSGSTFVPNTLGWYRQAPGKERELVAAISRSGGSTYYADSVKGRFTISRDNAKNTVYLQMNSLKPEDTAVYYCAARRFGYQGFAYGYWGQGTQVTVSS	high polyreactivity
QVQLVESGGGLVQAGGSLRLSCAASGRTFYVSAMGWYRQAPGKERELVAAISWSGGSTYYADSVKGRFTISRDNAKNTVYLQMNSLKPEDTAVYYCAAQTYQRHVVAYDYWGQGTQVTVSS	low polyreactivity
QVQLEESGRGLVQAGGSLRLSCAASGSTCYDYAMGWYRQAPGKERELVAASSRIGARTYYADSVKGRFTISRDNAKNTVYLQMNSQKPEDTAGYYCAATRVYSDYKYWGQGTQVTVSS	high polyreactivity
QVQLVESGGGLVQAGGSLRLSCAASGSIFWYYGMGWYRQAPGKERELVAAISSGGSTNYADSVKGRFAISRDNAKNTVYLQMNRLKPEDTAVYYCATKGYLWGQGTQVTVSS	high polyreactivity
QVQLVDSGGGLVQAGGSLRLSCAASGFIFDTNVMGWYRQAPGKERELVAAISWDVDSTYYADSVKGRFTISRDNAKNTVYLQMNSLKPEDTAVYYCATETFDYYGLAGEYWGQGTQVTVSS	high polyreactivity
